Results published in publication PMC12612047 (Nature Communications, 2025).

System: CNA/B
Test: Affinity of CLMB T44E for CNA/B
Assay type: binding
Conditions: glutamate for threonine at position 44; data not shown

B1: CLMB^T44E (protein)
chain: MGLKMSCLKGFQMCVSSSSSSHDEAPVLNDKHLDVPDIIITPPEPTGMMLPRDLGSTVWLDETGSCPDDGEIDPEA
- affinity for CNA/B relative to CLMB: failed to show increased affinity
